Assay results published in PMC10438457 (Science Advances, 2023).

T1: MBP-UFL1 (UniProt O94874 1-794)
T1 sequence: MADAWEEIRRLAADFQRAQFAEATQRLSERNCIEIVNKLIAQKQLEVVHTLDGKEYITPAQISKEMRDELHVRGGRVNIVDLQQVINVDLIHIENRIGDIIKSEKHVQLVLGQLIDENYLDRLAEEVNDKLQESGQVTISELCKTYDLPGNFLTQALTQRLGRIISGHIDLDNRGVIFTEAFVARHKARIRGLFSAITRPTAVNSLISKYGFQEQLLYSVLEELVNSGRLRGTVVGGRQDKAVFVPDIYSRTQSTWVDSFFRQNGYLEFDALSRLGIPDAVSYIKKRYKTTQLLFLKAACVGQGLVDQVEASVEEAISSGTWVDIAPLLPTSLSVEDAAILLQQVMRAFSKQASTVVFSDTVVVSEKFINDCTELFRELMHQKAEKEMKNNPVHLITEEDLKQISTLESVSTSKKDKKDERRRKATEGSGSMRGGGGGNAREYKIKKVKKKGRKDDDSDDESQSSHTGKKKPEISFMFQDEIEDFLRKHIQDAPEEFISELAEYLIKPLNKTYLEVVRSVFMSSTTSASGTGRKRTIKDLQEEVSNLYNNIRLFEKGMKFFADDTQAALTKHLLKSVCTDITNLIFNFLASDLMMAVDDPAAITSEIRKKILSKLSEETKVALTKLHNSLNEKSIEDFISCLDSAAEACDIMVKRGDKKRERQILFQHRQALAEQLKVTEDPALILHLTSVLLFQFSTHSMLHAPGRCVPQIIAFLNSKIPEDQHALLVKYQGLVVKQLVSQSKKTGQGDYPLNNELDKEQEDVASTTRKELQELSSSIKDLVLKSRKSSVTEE

B1: UFC1 (recombinant, GST tag cleaved) (enzyme)
chain: MADEATRRVVSEIPVLKTNAGPRDRELWVQRLKEEYQSLIRYVENNKNADNDWFRLESNKEGTRWFGKCWYIHDLLKYEFDIEFDIPITYPTTAPEIAVPELDGKTAKMYRGGKICLTDHFKPLWARNVPKFGLAHLMALGLGPWLAVEIPDLIQKGVIQHKEKCNQ
B2: GST-CDK5RAP3 (natural protein)
chain: MEDHQHVPIDIQTSKLLDWLVDRRHCSLKWQSLVLTIREKINAAIQDMPESEEIAQLLSGSYIHYFHCLRILDLLKGTEASTKNIFGRYSSQRMKDWQEIIALYEKDNTYLVELSSLLVRNVNYEIPSLKKQIAKCQQLQQEYSRKEEECQAGAAEMREQFYHSCKQYGITGENVRGELLALVKDLPSQLAEIGAAAQQSLGEAIDVYQASVGFVCESPTEQVLPMLRFVQKRGNSTVYEWRTGTEPSVVERPHLEELPEQVAEDAIDWGDFGVEAVSEGTDSGISAEAAGIDWGIFPESDSKDPGGDGIDWGDDAVALQITVLEAGTQAPEGVARGPDALTLLEYTETRNQFLDELMELEIFLAQRAVELSEEADVLSVSQFQLAPAILQGQTKEKMVTMVSVLEDLIGKLTSLQLQHLFMILASPRYVDRVTEFLQQKLKQSQLLALKKELMVQKQQEALEEQAALEPKLDLLLEKTKELQKLIEADISKRYSGRPVNLMGTSL
B3: UFL1 (1-21), UFC1-binding sequence peptide (peptide)
peptide: MADAWEEIRRLAADFQRAQFA

Tests used:
[1] = target: B2; assay: pull-down
[2] = target: T1, MBP-UFL1; assay: pull-down
[3] = target: B1; assay: ITC

Binder: B1
binding result [1]: binds

Binder: B2
binding result [2]: binds

Binder: B3
Kd [3]: 410 nM
